US8450280B2, “Activation of peptide prodrugs by hK2” (GenbSpera, Inc., priority 1999, dated 2013)

What was measured:
hK2 = target: T1, hK2 (Homo sapiens, UniProt P20151); test: Hydrolysis of hK2 substrates by hK2; assay type: biochemical; conditions: hK2 1 μg/ml, 50 mM Tris, 0.1 M NaCl, pH 7.8
T1 construct: made in house
Procedure: (§1) Hydrolyses of particular hK2 substrates were carried out at a hK2 concentrations of 1 μg/ml in 50 mM Tris buffer, with 0.1 M NaCl, at pH 7.8. Serum hydrolysis measurements were carried out in 50% fresh human serum in 50 mM Tris buffer, with 0.1 M NaCl, at pH 7.8. The single letter amino acid code was used to designate the peptide sequences used for Table 4. The units FU are arbitrary fluorescence units. The entries “U.D.” were for measurements of less than 0.01 FU/hour.

[1] = Serum hydrolysis of hK2 substrates; assay type: in vitro ADME; conditions: 50% fresh human serum in 50 mM Tris, 0.1 M NaCl, pH 7.8
Procedure: as §1

T1 sequence (P20151 25-261): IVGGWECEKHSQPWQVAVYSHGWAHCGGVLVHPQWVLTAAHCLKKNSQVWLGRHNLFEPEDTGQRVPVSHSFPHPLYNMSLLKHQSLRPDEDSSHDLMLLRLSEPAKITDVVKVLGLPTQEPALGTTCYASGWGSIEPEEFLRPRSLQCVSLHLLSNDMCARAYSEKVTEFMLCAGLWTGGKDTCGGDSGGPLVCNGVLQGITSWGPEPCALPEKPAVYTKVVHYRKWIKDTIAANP

Row | Substance | hK2 Hydrolysis Rate (hK2; Table 4) | hK2 Hydrolysis Rate (hK2; Table 5) | Serum Hydrolysis Rate ([1]; Table 4) | Serum Hydrolysis Rate ([1]; Table 5)
1 | SEQ ID NO: 66: hK2 substrate peptide, single letter sequence P7-P′1 (GHEQKRRL; listed as Homo sapiens) | 5966.31 FU/hr/m | 3366.5 FU/hr/m | 0.17 FU/hr | UD (The entries “U.D.” were for measurements of less than 0.01 FU/hour)
2 | SEQ ID NO: 67: hK2 substrate peptide, single letter sequence P7-P′1 (GGGKARRL; listed as Homo sapiens) | 4784.22 FU/hr/m |  | 0.03 FU/hr | 
3 | SEQ ID NO: 68: hK2 substrate peptide, single letter sequence P7-P′1 (GGGKAHRL; listed as Homo sapiens) | 4100.94 FU/hr/m |  | 0.09 FU/hr | 
4 | SEQ ID NO: 69: hK2 substrate peptide, single letter sequence P7-P′1 (GPAHQRRL; listed as Homo sapiens) | 4017.81 FU/hr/m |  | 0.10 FU/hr | 
5 | SEQ ID NO: 70: hK2 substrate peptide, single letter sequence P7-P′1 (GSKGHFRL; listed as Homo sapiens) | 3029.27 FU/hr/m |  | 0.04 FU/hr | 
6 | SEQ ID NO: 71: hK2 substrate peptide, single letter sequence P7-P′1 (GSKGHRRL; listed as Homo sapiens) | 2649.96 FU/hr/m |  | UD (The entries “U.D.” were for measurements of less than 0.01 FU/hour) | 
7 | SEQ ID NO: 72: hK2 substrate peptide, single letter sequence P7-P′1 (GKDVSRRL; listed as Homo sapiens) | 2316.12 FU/hr/m |  | 0.08 FU/hr | 
8 | SEQ ID NO: 73: hK2 substrate peptide, single letter sequence P7-P′1 (GSQNQRRL; listed as Homo sapiens) | 2100.48 FU/hr/m |  | 0.05 FU/hr | 
9 | SEQ ID NO: 74: hK2 substrate peptide, single letter sequence P7-P′1 (GSYPSRRL; listed as Homo sapiens) | 2060.21 FU/hr/m |  | 0.09 FU/hr | 
10 | SEQ ID NO: 75: hK2 substrate peptide, single letter sequence P7-P′1 (GSYPSSRL; listed as Homo sapiens) | 1456.18 FU/hr/m |  | 0.06 FU/hr | 
11 | SEQ ID NO: 76: hK2 substrate peptide, single letter sequence P7-P′1 (GHEQKGRL; listed as Homo sapiens) | 650.80 FU/hr/m |  | 0.04 FU/hr | 
12 | SEQ ID NO: 77: hK2 substrate peptide, single letter sequence P7-P′1 (GSNTERRL; listed as Homo sapiens) | 592.34 FU/hr/m |  | UD (The entries “U.D.” were for measurements of less than 0.01 FU/hour) | 
13 | SEQ ID NO: 78: hK2 substrate peptide, single letter sequence P7-P′1 (GSYEERRL; listed as Homo sapiens) | 324.75 FU/hr/m |  | 0.04 FU/hr | 
14 | SEQ ID NO: 79: hK2 substrate peptide, single letter sequence P7-P′1 (GKDVSGRL; listed as Homo sapiens) | 242.91 FU/hr/m |  | 0.05 FU/hr | 
15 | SEQ ID NO: 80: hK2 substrate peptide, single letter sequence P7-P′1 (GSNTEKRL; listed as Homo sapiens) | 255.90 FU/hr/m |  | 0.13 FU/hr | 
16 | SEQ ID NO: 81: hK2 substrate peptide, single letter sequence P7-P′1 (GSKGHFHL; listed as Homo sapiens) | 171.47 FU/hr/m |  | 0.10 FU/hr | 
17 | SEQ ID NO: 82: hK2 substrate peptide, single letter sequence P7-P′1 (GSQNQVRL; listed as Homo sapiens) | 193.55 FU/hr/m |  | 0.03 FU/hr | 
18 | SEQ ID NO: 83: hK2 substrate peptide, single letter sequence P7-P′1 (GPLILSRL; listed as Homo sapiens) | 118.21 FU/hr/m |  | 0.07 FU/hr | 
19 | SEQ ID NO: 84: hK2 substrate peptide, single letter sequence P7-P′1 (GSYEERHL; listed as Homo sapiens) | 42.87 FU/hr/m |  | 0.09 FU/hr | 
20 | SEQ ID NO: 85: hK2 substrate peptide, single letter sequence P7-P′1 (GKDVSGHL; listed as Homo sapiens) | 67.55 FU/hr/m |  | 0.05 FU/hr | 
21 | SEQ ID NO: 86: hK2 substrate peptide, single letter sequence P7-P′1 (GGGKAHHL; listed as Homo sapiens) | 70.15 FU/hr/m |  | 0.05 FU/hr | 
22 | SEQ ID NO: 87: hK2 substrate peptide, single letter sequence P7-P′1 (GSNTEKHL; listed as Homo sapiens) | 80.54 FU/hr/m |  | 0.03 FU/hr | 
23 | SEQ ID NO: 88: hK2 substrate peptide, single letter sequence P7-P′1 (GPAHQDRL; listed as Homo sapiens) | 75.34 FU/hr/m |  | 0.06 FU/hr | 
24 | SEQ ID NO: 89: hK2 substrate peptide, single letter sequence P7-P′1 (GHEQKGHL; listed as Homo sapiens) | 1.30 FU/hr/m |  | UD (The entries “U.D.” were for measurements of less than 0.01 FU/hour) | 
25 | SEQ ID NO: 90: hK2 substrate peptide, single letter sequence P7-P′1 (GPAHQDHL; listed as Homo sapiens) | 48.06 FU/hr/m |  | 0.00 FU/hr | 
26 | SEQ ID NO: 91: hK2 substrate peptide, single letter sequence P7-P′1 (GSYPSSHL; listed as Homo sapiens) | 24.68 FU/hr/m |  | UD (The entries “U.D.” were for measurements of less than 0.01 FU/hour) | 
27 | SEQ ID NO: 92: hK2 substrate peptide, single letter sequence P7-P′1 (GSQNQVHL; listed as Homo sapiens) | 32.48 FU/hr/m |  | 0.03 FU/hr | 
28 | SEQ ID NO: 93: hK2 substrate peptide, single letter sequence P7-P′1 (GHAQKRRL; listed as Homo sapiens) |  | 3665.1 FU/hr/m |  | 0.08 FU/hr
29 | SEQ ID NO: 94: hK2 substrate peptide, single letter sequence P6-P′1 (GGKSRRL; listed as Homo sapiens) |  | 3439.7 FU/hr/m |  | 0.03 FU/hr
